# In patent US20070178082A1 (Ablynx, published 2007):
# Tests used:
# [1] = biological target: rabbit serum albumin (rabbit, UniProt P49065 25-608); assay: Blot: phage displaying the nanobody on plasma (1/10) separated by SDS-PAGE and blotted on nitrocellulose, anti-M13-HRP [panel MSA 24]
# [2] = biological target: T1, mouse serum albumin (mouse, UniProt P07724 25-608); assay: BIACORE, mouse albumin immobilised on CM5 chip
# T1 construct: also called MSA; mouse albumin
# T1 sequence (P07724 25-608 limits assumed): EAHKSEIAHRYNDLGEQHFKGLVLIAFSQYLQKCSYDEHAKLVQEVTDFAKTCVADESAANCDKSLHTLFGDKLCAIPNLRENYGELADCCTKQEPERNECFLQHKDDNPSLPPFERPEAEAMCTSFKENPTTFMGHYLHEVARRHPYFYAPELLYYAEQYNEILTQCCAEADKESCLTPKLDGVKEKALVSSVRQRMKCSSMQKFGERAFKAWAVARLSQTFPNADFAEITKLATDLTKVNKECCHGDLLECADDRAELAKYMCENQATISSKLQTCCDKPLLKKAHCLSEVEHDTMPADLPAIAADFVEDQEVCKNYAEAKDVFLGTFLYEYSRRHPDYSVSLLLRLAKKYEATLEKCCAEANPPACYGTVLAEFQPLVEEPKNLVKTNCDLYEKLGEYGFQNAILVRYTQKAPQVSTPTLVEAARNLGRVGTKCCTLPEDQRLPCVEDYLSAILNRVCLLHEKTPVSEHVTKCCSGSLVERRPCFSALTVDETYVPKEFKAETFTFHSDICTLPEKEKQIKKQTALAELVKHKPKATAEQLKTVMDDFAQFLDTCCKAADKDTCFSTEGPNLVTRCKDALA
# Sequence of rabbit serum albumin (P49065 25-608 limits assumed): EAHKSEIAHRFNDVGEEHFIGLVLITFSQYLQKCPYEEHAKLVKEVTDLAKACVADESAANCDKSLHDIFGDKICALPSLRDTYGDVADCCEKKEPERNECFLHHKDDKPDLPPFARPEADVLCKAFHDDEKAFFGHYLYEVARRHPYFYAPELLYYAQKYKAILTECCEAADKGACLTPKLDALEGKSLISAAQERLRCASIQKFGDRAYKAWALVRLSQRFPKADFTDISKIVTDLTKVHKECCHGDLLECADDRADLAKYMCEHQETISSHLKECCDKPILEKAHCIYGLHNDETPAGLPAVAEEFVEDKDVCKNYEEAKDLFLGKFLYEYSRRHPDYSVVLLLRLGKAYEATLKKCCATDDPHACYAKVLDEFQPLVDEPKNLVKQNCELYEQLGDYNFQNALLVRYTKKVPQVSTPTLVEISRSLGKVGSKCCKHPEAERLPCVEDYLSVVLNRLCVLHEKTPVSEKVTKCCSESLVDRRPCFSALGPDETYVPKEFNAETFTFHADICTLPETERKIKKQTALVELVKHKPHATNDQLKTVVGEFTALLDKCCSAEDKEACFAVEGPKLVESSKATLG
binder,measurement,setting,value
"MSA24 (VHH, Llama VHH selected on mouse serum albumin) VHH: QVQLQESGGGLVQPGNSLRLSCAASGFTFRNFGMSWVRQAPGKEPEWVSSISGSGSNTIYADSVKDRFTISRDNAKSTLYLQMNSLKPEDTAVYYCTIGGSLSRSSQGTQVTVSS",binding result,[1],no binding
same,Kd,[2],28 nM
same,koff,[2],0.018 s⁻¹
same,kon,[2],640000 M⁻¹ s⁻¹
